Source: paper PMC4368157, “The Interaction Affinity between Vascular Cell Adhesion Molecule-1 (VCAM-1) and Very Late Antigen-4 (VLA-4) Analyzed by Quantitative FRET” (PLoS ONE, 2015)

Experiments:
[1] = target: T1, Alexa Fluor 488-VLA-4 conjugate (human recombinant Very late antigen-4, soluble form) (human, UniProt P13612 35-977; P05556 21-728, Alexa Fluor 488 on aliphatic amine groups (amine terminus, ε-amino groups of lysines); F/P ratio of the conjugate 3.0 ± 0.8; sites and chain not stated | Alexa Fluor 488 on aliphatic amine groups …); experiment: FRET or BRET; in solution, steady state; donor AF488-VLA-4 fixed at 350 nM, acceptor AF546-VCAM-1 titrated up to 850 nM; PBS with 1 mM EGTA, 2 mM MgCl2, pH 7.4, 30 minutes, 96-well plate; excitation 470 nm; fit assumes one-to-one interaction; conditions: both partners purified
T1 construct: integrin α4 subunit (CD49d) of VLA-4, human, recombinant soluble form; integrin β1 subunit (CD29) of VLA-4, human, recombinant soluble form; also called AF488-VLA-4; A488-VLA-4; source: bought: R&D Systems; conjugated with Alexa Fluor 488 succinimidyl ester, dialysed

[2] = target: T2, human recombinant VLA-4 (Very late antigen-4, soluble form, without fluorophore) (human, UniProt P13612 35-977; P05556 21-728); experiment: SPR; BIAcore 3000, CM5 chip; VCAM-1Fc captured by immobilised anti-human IgG (Fc); VLA-4 flowed at 100, 150, 400, 450 and 500 nM; PBS with 1 mM EGTA and 2 mM Mg2+; 5 μl/min; Langmuir model; conditions: both partners purified
T2 construct: integrin α4 subunit (CD49d) of VLA-4, human, recombinant soluble form; integrin β1 subunit (CD29) of VLA-4, human, recombinant soluble form; Same bought protein as in m1, not conjugated; also called CD49d/CD29; α4β1; source: bought: R&D Systems
T2 sequence (P13612 35-977, chain 1 of 2): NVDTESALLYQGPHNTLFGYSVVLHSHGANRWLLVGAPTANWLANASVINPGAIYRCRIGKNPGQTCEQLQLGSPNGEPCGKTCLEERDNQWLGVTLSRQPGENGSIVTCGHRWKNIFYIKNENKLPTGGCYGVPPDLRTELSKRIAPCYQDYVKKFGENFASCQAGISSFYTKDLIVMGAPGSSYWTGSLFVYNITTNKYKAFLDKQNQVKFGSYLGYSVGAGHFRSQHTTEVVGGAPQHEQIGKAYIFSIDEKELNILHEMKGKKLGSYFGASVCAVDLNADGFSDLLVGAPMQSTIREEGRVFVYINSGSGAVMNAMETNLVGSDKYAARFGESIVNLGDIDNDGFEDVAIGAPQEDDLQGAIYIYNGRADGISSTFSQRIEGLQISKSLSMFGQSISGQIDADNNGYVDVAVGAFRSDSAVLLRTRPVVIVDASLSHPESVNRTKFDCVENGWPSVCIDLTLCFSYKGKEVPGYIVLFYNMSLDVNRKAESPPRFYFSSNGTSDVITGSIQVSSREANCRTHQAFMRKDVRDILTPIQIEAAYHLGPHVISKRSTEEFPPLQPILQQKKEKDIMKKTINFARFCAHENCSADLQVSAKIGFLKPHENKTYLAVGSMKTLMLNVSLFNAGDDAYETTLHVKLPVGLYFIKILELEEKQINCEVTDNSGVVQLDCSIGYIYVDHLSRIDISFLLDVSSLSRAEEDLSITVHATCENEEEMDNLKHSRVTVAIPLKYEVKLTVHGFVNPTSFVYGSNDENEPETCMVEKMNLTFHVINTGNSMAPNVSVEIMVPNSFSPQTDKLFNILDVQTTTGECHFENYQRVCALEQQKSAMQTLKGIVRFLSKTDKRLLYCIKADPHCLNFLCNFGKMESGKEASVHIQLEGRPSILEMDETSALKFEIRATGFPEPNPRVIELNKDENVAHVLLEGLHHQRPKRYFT
T2 sequence (P05556 21-728, chain 2 of 2): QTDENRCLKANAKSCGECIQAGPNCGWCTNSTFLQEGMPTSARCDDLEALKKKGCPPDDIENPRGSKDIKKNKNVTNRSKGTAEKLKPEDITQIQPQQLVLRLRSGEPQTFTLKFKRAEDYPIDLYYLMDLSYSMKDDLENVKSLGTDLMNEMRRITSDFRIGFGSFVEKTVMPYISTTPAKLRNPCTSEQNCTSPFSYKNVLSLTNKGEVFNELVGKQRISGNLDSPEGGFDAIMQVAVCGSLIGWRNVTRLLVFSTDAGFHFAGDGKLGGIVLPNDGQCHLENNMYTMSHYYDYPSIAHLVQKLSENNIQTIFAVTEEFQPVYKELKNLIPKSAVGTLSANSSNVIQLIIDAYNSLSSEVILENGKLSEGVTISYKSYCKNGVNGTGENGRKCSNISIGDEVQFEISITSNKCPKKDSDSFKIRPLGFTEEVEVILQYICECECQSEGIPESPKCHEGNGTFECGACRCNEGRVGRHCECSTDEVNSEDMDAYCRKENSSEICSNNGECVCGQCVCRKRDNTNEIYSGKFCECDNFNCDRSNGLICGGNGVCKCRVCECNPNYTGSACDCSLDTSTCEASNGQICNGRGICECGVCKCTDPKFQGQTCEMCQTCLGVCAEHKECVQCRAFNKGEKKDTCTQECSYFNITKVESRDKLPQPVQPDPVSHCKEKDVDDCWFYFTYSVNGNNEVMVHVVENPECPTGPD

T1 sequence (P13612 35-977, chain 1 of 2): as the sequence (P13612 35-977, chain 1 of 2) above
T1 sequence (P05556 21-728, chain 2 of 2): as the sequence (P05556 21-728, chain 2 of 2) above

Kd [1] [nM] | Kd [2] [nM] | Binder
41.8 | – | Alexa Fluor 546-VCAM-1 conjugate (human recombinant Vascular Cell Adhesion Molecule-1, soluble form) (ligand, UniProt P19320 25-698, looked up, Alexa Fluor 546 on aliphatic amine groups (amine terminus, ε-amino groups of lysines); F/P ratio 0.60 ± 0.02; sites not stated, Vascular Cell Adhesion Molecule-1 (VCAM-1/CD106), human, recombinant soluble form; also called AF546-VCAM-1; CD106; source: bought: R&D Systems; conjugated with Alexa Fluor 546 succinimidyl ester, dialysed) FKIETTPESRYLAQIGDSVSLTCSTTGCESPFFSWRTQIDSPLNGKVTNEGTTSTLTMNPVSFGNEHSYLCTATCESRKLEKGIQVEIYSFPKDPEIHLSGPLEAGKPITVKCSVADVYPFDRLEIDLLKGDHLMKSQEFLEDADRKSLETKSLEVTFTPVIEDIGKVLVCRAKLHIDEMDSVPTVRQAVKELQVYISPKNTVISVNPSTKLQEGGSVTMTCSSEGLPAPEIFWSKKLDNGNLQHLSGNATLTLIAMRMEDSGIYVCEGVNLIGKNRKEVELIVQEKPFTVEISPGPRIAAQIGDSVMLTCSVMGCESPSFSWRTQIDSPLSGKVRSEGTNSTLTLSPVSFENEHSYLCTVTCGHKKLEKGIQVELYSFPRDPEIEMSGGLVNGSSVTVSCKVPSVYPLDRLEIELLKGETILENIEFLEDTDMKSLENKSLEMTFIPTIEDTGKALVCQAKLHIDDMEFEPKQRQSTQTLYVNVAPRDTTVLVSPSSILEEGSSVNMTCLSQGFPAPKILWSRQLPNGELQPLSENATLTLISTKMEDSGVYLCEGINQAGRSRKEVELIIQVTPKDIKLTAFPSESVKEGDTVIISCTCGNVPETWIILKKKAETGDTVLKSIDGAYTIRKAQLKDAGVYECESKNKVGSQLRSLTLDVQGRENNKDYFSPE
– | 39.6 ± 1.78 | human recombinant VCAM-1 Fc chimera (Fc fusion, UniProt P19320 25-698, looked up, Vascular Cell Adhesion Molecule-1 (VCAM-1/CD106), human, recombinant soluble form fused to Fc; source: bought: R&D Systems) FKIETTPESRYLAQIGDSVSLTCSTTGCESPFFSWRTQIDSPLNGKVTNEGTTSTLTMNPVSFGNEHSYLCTATCESRKLEKGIQVEIYSFPKDPEIHLSGPLEAGKPITVKCSVADVYPFDRLEIDLLKGDHLMKSQEFLEDADRKSLETKSLEVTFTPVIEDIGKVLVCRAKLHIDEMDSVPTVRQAVKELQVYISPKNTVISVNPSTKLQEGGSVTMTCSSEGLPAPEIFWSKKLDNGNLQHLSGNATLTLIAMRMEDSGIYVCEGVNLIGKNRKEVELIVQEKPFTVEISPGPRIAAQIGDSVMLTCSVMGCESPSFSWRTQIDSPLSGKVRSEGTNSTLTLSPVSFENEHSYLCTVTCGHKKLEKGIQVELYSFPRDPEIEMSGGLVNGSSVTVSCKVPSVYPLDRLEIELLKGETILENIEFLEDTDMKSLENKSLEMTFIPTIEDTGKALVCQAKLHIDDMEFEPKQRQSTQTLYVNVAPRDTTVLVSPSSILEEGSSVNMTCLSQGFPAPKILWSRQLPNGELQPLSENATLTLISTKMEDSGVYLCEGINQAGRSRKEVELIIQVTPKDIKLTAFPSESVKEGDTVIISCTCGNVPETWIILKKKAETGDTVLKSIDGAYTIRKAQLKDAGVYECESKNKVGSQLRSLTLDVQGRENNKDYFSPE
